Measurements as given in the domain aggregation screens of Martell et al. (2025).

Experiment: soluble fraction after stress (log2 fold change); higher = more stays soluble; pooled small domains, quantitative proteomics
Settings: stress: pH 4
Method in brief: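 After pH 4 stress, pooled custom libraries of small protein domains were quantified with high-throughput quantitative proteomics. Aggregation propensity is taken from the fold change in each domain's soluble amount following the acid stress. The scale is log2, where higher values mean more stayed soluble.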

HMHRGTPASIIAAAKQYLTGGQTVELYEREGGPWTFRLRTYLSETPYPEKVRASVEALKPAGVVFLYELQS
soluble fraction (log2): -0.112

HMHRIKRRNDTLVSALDSIAGIGAKRKKALLQHFGSVRAIKAVSAEEIAKVEGISPTLANQIFEAL
soluble fraction (log2): -0.0221

HMHRTMFYLDVDLAEGQSVKMAVHEDDDPGELAARFADEHQLKSRAMEKLRSVIEENVRLHRRNQ
soluble fraction (log2): -0.306

HMHRTRNAERTRAAVLKAAAEVLAERGTGASLARIAEVAGVSKSGLLHHFANREQLIVALLED
soluble fraction (log2): -0.462

HMHSIFPVIRSTSFPTKSNDGELFITSDHTAETRIYYALDLGNTYRLIDQKVMNEINLTESLVKETARF
soluble fraction (log2): -1.63

HMHSILDDIEGIGPARRKALMRHYMNLDAIKSATVEELAAVPSMNEKSAKAVHNFFHQQKKD
soluble fraction (log2): 0.22

HMHSKQRDAIFENLRSRKDHPTAEEIYLSLKPAMPAISLATVYRNLAQLENEGLILRLGSGGSARYDGDT
soluble fraction (log2): 0.164

HMHSLGDQVFETIKELIVNNTYQPGELLQIDKLAAEFGVSTTPVREALLRLEGLGLVDIERNKAAVVT
soluble fraction (log2): -0.352

HMHSPLLDRYLAEVGWRLRHLSGAQREDILAGLREHIADLESAGVAPEEIVARLGSPESVADAAAGEF
soluble fraction (log2): 0.0489

HMHSPTFYVHVVGQVKVPGVYELEVGSRLFDAVIAAGGFKDDADQASVNLARPLSDGEQIVVLKLGDQ
soluble fraction (log2): -0.732

HMHTADDFKQLAKQTSNGQLRTRYLALYLFKNGETRTQIATYLGVARGSVNTWVSNYLAHGLEGLQSKP
soluble fraction (log2): 0.0388

HMHTSEDLEKLLTRYFQSHESINRQQFEQLSGFTRTTASRRLKALVEAGKLKNIGLHHFPVYKPTEGNF
soluble fraction (log2): 0.134

HMHVGVWIMNEKGEILLEQRASNKKVDPNKWARIGGHVDAGEKPIQAIQREILEEIGVKIPLENFIVLET
soluble fraction (log2): -0.592

HMHVLAVDEALHKLTELNELHAKIVEMRFFSGMTVQEVADELGVSKRKIESEWTMIKAWLRKELN
soluble fraction (log2): -0.916

HMHVSLSGKIHSELRKLILNGELKAGERLPSEPDLAHELGVSRNSLREAIGLLQREGLLLKKHGIGTFVTD
soluble fraction (log2): 0.183

HMHVYQSLVTDRVVPGGGYRTTEAILSTEAWRNTLLEQAKRELIGVRNKYASLTELAKVWTAIDTVT
soluble fraction (log2): -0.249

HMHYALTVDFPAALEARIDPAHRAALRGVLAHDPRPSYQSDPERLYGVAFAGKNVKFTVEDGVLTVRKIEE
soluble fraction (log2): -0.267

HMHYKLIIFENHTKSTSLDITPEQARQILGVTDYTPEQYEILAEITNRPASYFMDDLVDYYVD
soluble fraction (log2): -1.53

HMHYNMNYLENLTKTELFDLAKNKFGLTYAEMERHLSIPEGGARYAIKAEHSKYGSDIKKYLVEFLLE
soluble fraction (log2): -0.134

HMIADPAKPDWTTILAPVTTGTTVTHKTFGQGTVTKLDKTKKYLTVSFAAGQKNFVFPNAFIDGFLK
soluble fraction (log2): -0.105

HMIADSSSIHQDAKQQLHSYLRTNIQPLMRAGKQLDLKDILHHVTIRKPKLVQQLGMKQVQHMVQVLLD
soluble fraction (log2): 0.184

HMIAGHLQEKKGFFYIVLSYPDAAGKRKTKWFPTKLSVKGNKKKAEVMLMDARKTFVPPETPL
soluble fraction (log2): 0.207

HMIAITVGSKVRVKAGATFSDGTKPFTEVYNTVYDVQLLSRNGKEARIGIGEQWTGWMYISDLYPADQ
soluble fraction (log2): 0.00391

HMIAPQISSGKVNTKELNVRSGPATTFGIVKKLPLNAMVGIFEEKNGWFRIATGQWVSKTYVDL
soluble fraction (log2): 0.187

HMIAVLEEGSRFRAINDISGKPFGPEMIIKNGQVIAAGKKILTKPKKLIGKKEGTKFNISGKEYVIKDI
soluble fraction (log2): -0.834

HMIAWNFDTMKESLSEMERVDYQEFIKAFLSLELSISDRTILNQVYQDYMDEDDLSLISDELRV
soluble fraction (log2): -1.4

HMIDDNTIIQIGDSYSKSIRLLGEPIELKNRSLNQKSYFMAVYDFKGRRYRLFFENDVLFDILRD
soluble fraction (log2): -0.486

HMIDELLDPTHRIMVRHPRVDYVSPGFLIGPDKDVILWGFTGGIIARLFDFLGWTRPWDQSHVQDLPPYML
soluble fraction (log2): -0.242

HMIDENILSEEIKHYIETNNYAKDDKLPSERSLASLFNVSRALVRKSLISLVDVNYLYVKDKSGYYING
soluble fraction (log2): -0.52

HMIDEPENLIQEDKMVNIIYDLALLEGVKTFNSSNFQSVKSNDFVYKKYKIDSLQFAKSTQFYASDINR
soluble fraction (log2): -0.404

HMIDFDEIEILSSSKIEKIENSEYLKSSIFEKDSNQYIYRLSFENRDQLKNFKKEIEDIDQIKKIDVTY
soluble fraction (log2): -0.665

HMIDHKVIRSFRQKRNMTLQELAQKANLSVSYLSEIELGKKQPSLETLDKLSKALNISLEGL
soluble fraction (log2): 0.131

HMIDHLPPQRAAVLAFLQRELVAGRSPSLAEIALAFGFASRNAAQKHVQALVADGLLEQATGRSRGLRLPG
soluble fraction (log2): -0.235

HMIDIGSKIKKLRSKKSIEIGKKYTGAMLANELGISRSYLGDIESGRTVPNEIILGKIADIFDVDIYELIG
soluble fraction (log2): -0.405

HMIDLPEAFIQQLKEAVDVGDVTGLRELLGQLRRRYPQQSALSDEAERLLREFDFERLAQLFEGLD
soluble fraction (log2): -1.54

HMIDNFFTIRFNYSKINEVIRLLKEFNGEIFNKNYDKNEYIIEFSIPKKDAALLISKLKNITGLTIEQ
soluble fraction (log2): -0.538

HMIDQIAEQLQQRLAVDTAFATIQRDYPDVIANKDIELLTAIKVNQKIAEGASRASAMLESAKEVYETL
soluble fraction (log2): -0.329

HMIDRPLTLVEDYERFAGELAKITLRFMLDGRKRFNGRLAGFDEDGKIVLETSFGRFAFSFDEIDSARI
soluble fraction (log2): -2.08

HMIDSVFASYRQVALDDELWDKVRNGAVLPKVELFEVMDGPVLFTYQSKIVAMYEPHPTKAGYIKPRKMFL
soluble fraction (log2): -1.52

HMIDTTKILPGQEFKNMQELSVALTGQKMPAGKGYVLQQEKFKLYFSWKKITGTHKLIIDEIYEEPKT
soluble fraction (log2): -0.573

HMIDYIKYTVDGKTYELINNWDGTWSRELEAPLVAGRYDLLLEISQNGLVTYIDSSDPRYEFYLDVI
soluble fraction (log2): -2.3

HMIEESTVPDLKGKSQEDAIKLLEDANLKYQIVEEESKKIEAGYVISQETDANKKVNAGDTVIIHVST
soluble fraction (log2): -0.0907

HMIEFYTMQDMFYFKLTGDNTSRERREALGKILGIGYGNATQMVSRLNNYGISKEEFSKAIEEIEKQLEA
soluble fraction (log2): -1.36

HMIEIKNLSFSYGKKKQSVFNDFSLTLDKGSVYGLLGKNGTGKSTLLYLMTGLLRPQAGQVLYKGVDVS
soluble fraction (log2): 0.159

HMIEKVNDYVVRFANVNGTGSASANNLFALAIYRMGVPVTPKNIFPSNIQGLPTWFEVRVSGSGYLARRG
soluble fraction (log2): 0.129

HMIELDRTNLLGVFGPKSRPYALLMLSNGEMIKISIGDQFFGWRVYGIDEKSIQVQNGTKQEILRIP
soluble fraction (log2): -1.19

HMIENGILELKGKTGVAQTVLRPSGKVLIDDEIYDAVALTGYIEKADKVLVTKVEATQLYVEK
soluble fraction (log2): -0.289

HMIERLVVSPAAGVFTKKMSVENNTRIDVGHVLGHVGETEVRSPFAGILQNYIAVDGERLTAHQPIAWLRS
soluble fraction (log2): 0.15

HMIERVLRTEEHIEAFAGEEVEAKLFAPIDGKKTLRGILGGIEDGRVILTVGDTEYRIEHAKISRLTTVFD
soluble fraction (log2): -0.712

HMIESVMVGIKELLGDTIDQKYEKYIRLGGIPSDEVDEFNSVFSAYEKVNGNHNGKKKYDYVMNNLPIIPV
soluble fraction (log2): -1.54

HMIETIQVPRAFNDWHEQADKTKSVFEVYAEIEASENEKLIAWVRNNQNEFAKIWLGALIPELE
soluble fraction (log2): -1.24

HMIGHIGSAVMLNAKLRPRLPLLHVLALTQSLGERLSAAEAQPEVYRWSDPGQSRVIAEFEGGRLTRWRLE
soluble fraction (log2): -0.968

HMIGVIVDEVDPDSSLKSGDIITEVNREVILNIDDFVGLVEQIQKTGRSSLLLKILRDKKSLWVTIQFV
soluble fraction (log2): 0.22

HMIHQIPVNVQKIRQIIGINLNENDYLNYLAKLGFVIDEGLIIVPSFRSDVKTQNDLAEEIARV
soluble fraction (log2): -0.236

HMIINFDAIKLTTELNKYKRHKAIPNTFFDGTYTILDVRELYNDLTPKAQKIADELIEHYNVDVK
soluble fraction (log2): -1.69

HMIINLGELLKMLEVNKYQDAMDALDSLIEEGGSLEKIESLHEIRQHTHAMNFREAERLLSILIESEGA
soluble fraction (log2): -1.41

HMIISPKKLEYRQRIINALGDRKMSLNELSKAMGYKGITTKLSFTVDDMIKSGVIEKVMVGAYAKLHIP
soluble fraction (log2): 0.22

HMIIVMKRNATETQIDHVVRWVESIGYRAHRSNGTEQTVVKAVGGERGGEELKYLAALSGVEKVVPIR
soluble fraction (log2): 0.141

HMIKDSKAAYKILGVDENATNEEIKKAYRQLVINHHPDKVSHLGEDIQRAANEKLKQINAAYDEIKKQRGF
soluble fraction (log2): 0.171

HMIKEGDLVFIWNPKKGDSFLIKVQPGQSQGTHFGQIKHSEIMEHNYGEGIRTPKGQVYYLLRPTLGEFTR
soluble fraction (log2): -0.38

HMIKEVGYEKFMQMTEEEDIGRVEIDQEENQITFTDKDETAIYKTGMVDDPDLTERLYDAGAEFS
soluble fraction (log2): -0.591

HMIKIDESTLSEDELKIFEILKIEDKNIENIAIESKILPGKLLATLMNMEMKKIVVQYPGKVFGLNRKLK
soluble fraction (log2): 0.0566

HMIKKAILPVAGLGTRFLPASKSIPKEMVTVVDRPAIEYVVREAVEAGIEQIILVTHSSKASIENYFDR
soluble fraction (log2): -0.217

HMIKKLDIEPIIKSVVDDFNNIYKLKRGITISYLNDGKNKYFINGIENRIEQIIANLLDNSISFSEDNKDV
soluble fraction (log2): 0.122

HMIKLSTNENTALRLVMERGLVTESELKGLFDNPVAVMESLISKMIETNTHWIHSERSENGEWVYAWQ
soluble fraction (log2): -1.46

HMIKNDIGKFIKLYRETHQWSQRELAEHLGVSQRNVSYYEKGERIPPADVLKKLSTLFDVPVDVLLGLK
soluble fraction (log2): -0.274

HMIKRDLAFSEFIAEVKAGQVREVTIKGNSISGNLNDGREFNTYAPNDPNLVKTLTDQGVLIRAIPLE
soluble fraction (log2): 0.227

HMILNPQELGERIRKLRLKRNKTQSYFADMLYISSSYLALIESGKRVPNLDLLIHIAKFTDVTLDYLVFG
soluble fraction (log2): -0.573

HMILVLKPGAPEDLKNELIHDIEKMGLRVHVSVGEGTTIIGLIGDTSKISKYTFSSYEIVSNVLRVT
soluble fraction (log2): -0.35

HMILYDDEYKGPRYRYGLHSRPLSPGAVPKGFIIHSDRPHPDFRHGTLDYPVKLPDDRAANFELIFIGEFD
soluble fraction (log2): -1.19

HMIMMTLGEKIRSIRKAKGMTQQELAEKLNTTKQTIGKYEKGIVTNLPLFRINELARALSTTPAYLTGW
soluble fraction (log2): ≥ 0.43

HMIMPSDATEAKLLGVLGNEPLHVDEIRNQAELPIEKVSAALALMELKGMVRQVGGMNYVAVR
soluble fraction (log2): -0.263

HMIMQTTSDRINQRMRDLGLQHKDLVAATGASKGTVTNWINGVNNPTGKRLVQLAQALKTTSSWLLTGN
soluble fraction (log2): -0.0389

HMINDPSALGQRAFVDELLWMAGYVPEKIEIYQTLPNNSRVYRVKLDSVNGGFIFIRWDKKKKEHYV
soluble fraction (log2): -0.444

HMINEEELLKIENIKRKYPDSKAALMPVLYFFQEKYGFISDDSIKEISQLLNISEVDIKGVVSFYEMFHEK
soluble fraction (log2): -1.04
